T1: IgA-Pep11
T1 sequence (peptide, Tn (GalNAc, marked *) on S3, S5 and T9): KPSPSTPPTPSC

T2: IgA-Pep13
T2 sequence (peptide, Tn (GalNAc, marked *) on S3 and T7): KPSTPPTPSPSC

T3: B-MUC2
T3 sequence (peptide, N-terminal acetyl; Tn (GalNAc, marked *) on T3; C-terminal amide): PTTTPLK

T4: D-MUC2
T4 sequence (peptide, N-terminal acetyl; Tn (GalNAc, marked *) on T2 and T3; C-terminal amide): PTTTPLK


Tests used:
Test in all cases: glycopeptide microarray, antibody at 50 ug/mL
IgA-Pep11 = molecular target: T1, IgA-Pep11
IgA-Pep13 = molecular target: T2, IgA-Pep13
PADRE Tn3b = molecular target: PADRE Tn3b
Tn3 linker = molecular target: Tn3 linker
B-MUC2 = molecular target: T3, B-MUC2
D-MUC2 = molecular target: T4, D-MUC2

RLU (IgA-Pep11)	RLU (IgA-Pep13)	RLU (PADRE Tn3b)	RLU (Tn3 linker)	RLU (B-MUC2)	RLU (D-MUC2)	Binder
311 RLU	253 RLU	-84 RLU	21 RLU	–	–	2F3 variant #6 (antibody, IgG1, V domains shown) VH: QVQLLESGGGLVQPGGSLRLSCAASGFTFDSYAMSWVRQAPGKGLEWVSAISGSGASTYYADSVKGRFSISRDNSKNTLYLQMNSLRAEDTAVYYCAIRREYSGYAPFDYWGQGTLVIVSS VL: DIVMTQTPSSLSASVGDRVTITCRASQGISSWLAWYQQKPEKAPRSLIYAASSLQSGVPSRFSGSGSGTDFTLTISSLQPEDFATYYCQQYISYPYTFGQGTKLEIK
–	–	49 RLU	24 RLU	237 RLU	179 RLU	2F3 variant #17v2 (antibody, IgG1, V domains shown) VH: QITLRESGGGLVQPGGSLRLSCAASGFTFDSYAMSWVRQAPGKGLEWVSAISGSGHSTYYADSVKGRFSISRDNSKNTLYLQMNNLRAEDTAVYYCAIRREYSGYAPFDYWGQGTLVTVSS VL: DIVMTQTPSSLSASVGDRVTITCRASQGISSWLAWYQQKPEKAPRSLIYAASSLQSGVPSRFSGSGSGTDFTLTISSLQPEDFATYYCQQYISYPYTFGQGTKLEIK
–	–	13 RLU	8 RLU	–	–	2F3 parent antibody (antibody, V domains shown) VH: QITLRESGGGLVQPGGSLRLSCAASGFTFDSYAMSWVRQAPGKGLEWVSAISGSGDSTYYADSVKGRFSISRDNSKNTLYLQMNSLRAEDTAVYYCAIRREYSGYAPFDYWGQGTLVTVSS VL: DIVMTQTPSSLSASVGDRVTITCRASQGISSWLAWYQQKPEKAPRSLIYAASSLQSGVPSRFSGSGSGTDFTLTISSLQPEDFATYYCQQYISYPYTFGQGTKLEIK
